Assay results as given in paper PMC11964227, “Critical functions and key interactions mediated by the RNase E scaffolding domain in Pseudomonas aeruginosa” (PLOS Genetics, 2025).

Key:
T18-RNase E^1-1057 = molecular target: T1, T18-RNase E^1-1057 (P. aeruginosa, UniProt Q9HZM8 1-1057); experiment: two-hybrid; adenylate-cyclase-based bacterial two-hybrid in E. coli BTH101 (T18 and T25 fusions); MacConkey agar with maltose and IPTG, 30°C then room temperature; β-galactosidase activity with ONPG; settings: partners not purified
T1 construct: source: bacterial two-hybrid fusion (pUT18C), E. coli BTH101

His10Smt3-tagged PNPase = molecular target: T2, His10Smt3-tagged PNPase (P. aeruginosa, UniProt Q9HV59 1-701); experiment: pull-down; purified Flag-tagged RNase E proteins (20-25 µg) immobilised on anti-Flag M2 magnetic beads, 5 µg of PNPase or RhlB in 100 µL buffer H (50 mM Tris-HCl pH 8.0, 150 mM NaCl, 0.01% Triton X-100), 1 hour at 4 °C; SDS-PAGE, Coomassie Blue; settings: both partners purified
T2 construct: Polyribonucleotide phosphorylase (PNPase), P. aeruginosa, pnp; also called His10-Smt3-PNPase; source: soluble bacterial lysates, purified (nickel-agarose)
T2 sequence (looked up): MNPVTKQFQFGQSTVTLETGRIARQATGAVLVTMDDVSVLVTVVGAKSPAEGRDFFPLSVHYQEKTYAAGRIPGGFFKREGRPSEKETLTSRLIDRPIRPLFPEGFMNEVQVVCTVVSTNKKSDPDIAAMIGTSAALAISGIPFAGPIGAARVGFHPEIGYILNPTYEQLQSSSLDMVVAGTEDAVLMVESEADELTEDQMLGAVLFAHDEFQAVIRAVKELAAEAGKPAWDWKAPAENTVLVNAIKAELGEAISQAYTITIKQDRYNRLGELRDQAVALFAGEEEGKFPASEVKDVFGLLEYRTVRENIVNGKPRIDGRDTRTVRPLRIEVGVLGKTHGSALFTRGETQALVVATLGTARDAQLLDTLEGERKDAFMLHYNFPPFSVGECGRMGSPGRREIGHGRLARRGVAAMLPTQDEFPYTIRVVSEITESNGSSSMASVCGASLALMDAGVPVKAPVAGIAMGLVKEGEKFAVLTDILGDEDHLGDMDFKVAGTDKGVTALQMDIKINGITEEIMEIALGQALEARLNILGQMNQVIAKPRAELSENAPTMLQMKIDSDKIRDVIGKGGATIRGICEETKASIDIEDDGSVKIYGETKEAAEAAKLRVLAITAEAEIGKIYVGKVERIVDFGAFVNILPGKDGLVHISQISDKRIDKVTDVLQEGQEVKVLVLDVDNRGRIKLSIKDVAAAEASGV

| Binder | fold increase of β-galactosidase activity compared to empty vector controls (T18-RNase E^1-1057) [fold] | binding result (His10Smt3-tagged PNPase) |
| --- | --- | --- |
| T25-PNPase (enzyme, P. aeruginosa, UniProt Q9HV59 1-701, looked up, Polyribonucleotide phosphorylase (PNPase), P. aeruginosa, pnp; source: bacterial two-hybrid fusion (pKT25), E. coli BTH101) MNPVTKQFQFGQSTVTLETGRIARQATGAVLVTMDDVSVLVTVVGAKSPAEGRDFFPLSVHYQEKTYAAGRIPGGFFKREGRPSEKETLTSRLIDRPIRPLFPEGFMNEVQVVCTVVSTNKKSDPDIAAMIGTSAALAISGIPFAGPIGAARVGFHPEIGYILNPTYEQLQSSSLDMVVAGTEDAVLMVESEADELTEDQMLGAVLFAHDEFQAVIRAVKELAAEAGKPAWDWKAPAENTVLVNAIKAELGEAISQAYTITIKQDRYNRLGELRDQAVALFAGEEEGKFPASEVKDVFGLLEYRTVRENIVNGKPRIDGRDTRTVRPLRIEVGVLGKTHGSALFTRGETQALVVATLGTARDAQLLDTLEGERKDAFMLHYNFPPFSVGECGRMGSPGRREIGHGRLARRGVAAMLPTQDEFPYTIRVVSEITESNGSSSMASVCGASLALMDAGVPVKAPVAGIAMGLVKEGEKFAVLTDILGDEDHLGDMDFKVAGTDKGVTALQMDIKINGITEEIMEIALGQALEARLNILGQMNQVIAKPRAELSENAPTMLQMKIDSDKIRDVIGKGGATIRGICEETKASIDIEDDGSVKIYGETKEAAEAAKLRVLAITAEAEIGKIYVGKVERIVDFGAFVNILPGKDGLVHISQISDKRIDKVTDVLQEGQEVKVLVLDVDNRGRIKLSIKDVAAAEASGV | 11 |  |
| T25-RhlB (enzyme, P. aeruginosa, UniProt Q9HXE5 1-397, looked up, RNA helicase RhlB, P. aeruginosa; source: bacterial two-hybrid fusion (pKT25), E. coli BTH101) MVEPQEGKTRFHDFNLAPSLMHAIHDLGFPYCTPIQAQVLGFTLRGQDAIGRAQTGTGKTAAFLISIITQLLQTPPPKERYMGEPRALIIAPTRELVVQIAKDAAALTKYTGLNVMTFVGGMDFDKQLKQLEARFCDILVATPGRLLDFNQRGEVHLDMVEVMVLDEADRMLDMGFIPQVRQIIRQTPHKGERQTLLFSATFTDDVMNLAKQWTVDPAIVEIEPENVASDTVEQHVYAVAGSDKYKLLYNLVAQNNWERVMVFANRKDEVRRIEERLTKDGISAAQMSGDVPQHKRIRTLEGFREGKIRVLVATDVAGRGIHIDGISHVINFTLPEDPDDYVHRIGRTGRAGASGTSISFAGEDDAFALPPIEELLGRKITCEMPPAELLKPVPRKH | 5 |  |
| Flag-RNase E^572-1057 (domain or fragment, P. aeruginosa, UniProt Q9HZM8 572-1057, looked up, The results call the C-terminal tag 3xFlag, the methods Twin-Strep-Flag; also called RNase E CTD with no MTS; source: soluble bacterial lysates, purified (nickel-agarose, 250 mM imidazole fraction); not shown: His10-Smt3, N-terminal, kept; Twin-Strep-Flag, C-terminal, kept) AAKPAETSKPAAERQTRQDERRNGRQQNRRRDGRDGNRRDEERKPREERAERQPREERAERPNREERSERRREERAERPAREERQPREGREERAERTPREERQPREGREGREERSERRREERAERPAREERQPREGREERAERPAREERQPREDRQARDAAALEAEALPNDESLEQDEQDDTDGERPRRRSRGQRRRSNRRERQREVSGELEGSEATDNAAAPLNTVAAAAAAGIAVASEAVEANVEQAPATTSEAASETTASDETDASTSEAVETQGADSEANTGETADIEAPVTVSVVRDEADQSTLLVAQATEEAPFASESVESREDAESAVQPATEAAEEVAAPVPVEVAAPSEPAATEEPTPAIAAVPANATGRALNDPREKRRLQREAERLAREAAAAAEAAAQAAPAVEEIPAVASEEASAQEEPAAPQAEEITQADVPSQADEAQEAVQAEPEASGEGAADTEHAKKTEESETSRPHA |  | binds |
